Laboratory results reported in patent publication US12458818B2, “Anti-trophoblast cell surface antigen 2 (TROP2) antibodies and antibody drug conjugates comprising same” (CSPC MEGALITH BIOPHARMACEUTICAL CO., LTD., priority 2019, dated 2025).
Several values for one entry are separate records, joined by “and”; a condition that tells them apart may be missing. Identical values can stand only once.

Tested on: xenografted MDA-MB-468 human breast adenocarcinoma tumors
Assay: MDA-MB-468 xenograft efficacy in female nude mice (Example 4)
Format: in vivo, mouse
Procedure: The anti-tumor activity of DP002-HC4LC5-ADC was evaluated as a single agent in female nude mice bearing xenografted MDA-MB-468 human breast adenocarcinoma tumors.
Each mouse was inoculated with 5×10^6 MDA-MB-468 tumor cells (in 0.1 mL, 1:1 with Matrigel) at the right flank by subcutaneous administration under sterile conditions. When the tumors reached a volume of ˜150 mm^3, mice were randomized into one of 7 treatment groups (6 mice per group), as outlined in Table 12, and treatments began. All doses of DP002-HC4LC5-ADC were administered by intravenous injection via tail vein injection.
Tumor size and animal body weight were measured twice per week. Clinical signs were recorded daily. Tumors were measured using a caliper in two dimensions (i.e., length (a) and width (b)), and tumor volumes were estimated from measurements of the two diameters of the individual tumors as follows: Tumor Volume (mm^3)=(a×b^2)/2.
Average tumor growth curves for each treatment group were plotted with the observation time on the X-axis, and corresponding tumor volume (geometric mean) on the Y-axis. A two-tailed t-test was used to analyze the statistical significance of any differences between the treatment groups and the control group. Tumor Growth Inhibition (TGI) was calculated after each tumor volume measurement according to the formula: % TGI=(TVcn−TVtn)/TVcn×100, where TVtn and TVcn are the mean tumor Volume of treated and control groups, respectively. Body weight change (CBW %) was calculated after each body weight measurement according to the formula: CBW %=(BWn−BW0)/BW0×100, where BWn is the body weight at day n and BW0 is the body weight at day 0 respectively.

[1] = 1 mg/kg IV Days 0, 7, 14, 21, n = 6
[2] = 1 mg/kg IV once on Day 0, n = 6 unless specified
[3] = 2 mg/kg IV Day 0 + 1 mg/kg IV Days 7, 14
[4] = 2 mg/kg IV Day 0 + 1 mg/kg IV Days 7, 14, n = 6 unless specified
[5] = 2 mg/kg IV once on Day 0, n = 6 unless specified

B1: DP002-HC4LC5-ADC: anti-TROP2-MMAE antibody drug conjugate (DAR ~1.6-2.3) of antibody with HC4 and LC5 (SEQ ID NO: 62) (conjugate)
VH: EVQLVQSGAEVKKPGESLKISCKGSGYTFTDYSINWVRQMPGKGLEWMGVISTYYGDASYNQKFKGQVTISADKSISTAYLQWSSLKASDTAMYYCARYGDGYNQFDYWGQGTLVTVSS
light: DIQMTQSPSSLSASVGDRVTITCRVSESVDSYGNNFMHWYQQKPGKAPKLLIYRASNLESGVPSRFSGSGSGTDFTFTISSLQPEDIATYYCQQSYEDPYTFGGGTKLEIKRTVAAPSVFIFPPSDEQLKSGTASVVCLLNNFYPREAKVQWKVDNALQSGNSQESVTEQDSKDSTYSLSSTLTLSKADYEKHKVYACEVTHQGLSSPVTKSFNRGEC
modifications: MMAE conjugate
B1 was tested, and the “% TGI Day 70” value (1 mg/kg IV Days 0, 7, 14, 21) was 85.88%, the “% of mice with tumor regression at the end of the study” value (“% of mice with tumor regression” for short) (1 mg/kg IV Days 0, 7, 14, 21) was 30% and the “Tumor Volume (mm^3, Mean ± SEM) Day 70” value (1 mg/kg IV Days 0, 7, 14, 21) was 191.51 mm^3 and 192.51 ± 91.38*** mm^3. For the same molecule, the “Tumor Weight (g, Mean ± SEM) Day 84” value (1 mg/kg IV Days 0, 7, 14, 21) was 0.421 ± 0.218 g, the “Number of mice demonstrating full tumor regression at Week 4 following first dose” value (shortened to “Number … at Week 4 following first dose”) [1] was 1 and the “Number of mice demonstrating full tumor regression at Week 5 following first dose” value (from here on “Number … at Week 5 following first dose”) [1] was 1. For the same molecule, the “Number of mice demonstrating full tumor regression at Week 6 following first dose” value (“Number … at Week 6 following first dose” for short) [1] was 1, the “Number of mice demonstrating full tumor regression at Week 7 following first dose” value (“Number … at Week 7 following first dose” for short) [1] was 2 and the “Number of mice demonstrating full tumor regression at Week 8 following first dose” value (“Number … at Week 8 following first dose” for short) [1] was 2. The “Number of mice demonstrating full tumor regression at Week 9 following first dose” value (“Number … at Week 9 following first dose” for short) [1] was 2, the “Number of mice demonstrating full tumor regression at Week 10 following first dose” value (“Number … at Week 10 following first dose” for short) [1] was 2 and the “Number of mice demonstrating full tumor regression at Week 11 following first dose” value (from here on “Number … at Week 11 following first dose”) [1] was 2/6 and 2. The “Number of mice demonstrating full tumor regression at Week 12 following first dose” value (from here on “Number … at Week 12 following first dose”) [1] was 2, the “% TGI Day 70” value (1 mg/kg IV once on Day 0) was 62.16% and the “Tumor Volume (mm^3, Mean ± SEM) Day 70” value (1 mg/kg IV once on Day 0) was 515.77 mm^3 and 515.77 ± 127.38*** mm^3. For the same molecule, the “Tumor Weight (g, Mean ± SEM) Day 84” value (1 mg/kg IV once on Day 0) was 0.658 ± 0.165 g, the “Tumor Weight (g, Mean ± SEM) Day 77” value (1 mg/kg IV once on Day 0, animals euthanized Day 77) was 0.972 ± 0.165 g and the “Number … at Week 4 following first dose” value [2] was 0. For the same molecule, the “Number … at Week 5 following first dose” value [2] was 0, the “Number … at Week 6 following first dose” value [2] was 0 and the “Number … at Week 7 following first dose” value [2] was 0. For the same molecule, the “Number … at Week 8 following first dose” value [2] was 0, the “Number … at Week 9 following first dose” value [2] was 0 and the “Number … at Week 10 following first dose” value [2] was 0. The “Number … at Week 11 following first dose” value [2] was 0, the “Number … at Week 12 following first dose” value [2] was 0 (n = 4) and the “% TGI Day 70” value [3] was 87.61%. The “% of mice with tumor regression” value [3] was 100%, the “Tumor Volume (mm^3, Mean ± SEM) Day 70” value [3] was 168.94 mm^3 and 168.94 ± 168.94*** mm^3 and the “Tumor Weight (g, Mean ± SEM) Day 84” value [3] was 0.000 ± 0.000 g. For the same molecule, the “Tumor Weight (g, Mean ± SEM) Day 77” value (2 mg/kg IV Day 0 + 1 mg/kg IV Days 7, 14, animal euthanized Day 77) was 0.749 g, the “Number … at Week 4 following first dose” value [4] was 5 and the “Number … at Week 5 following first dose” value [4] was 5. The “Number … at Week 6 following first dose” value [4] was 5, the “Number … at Week 7 following first dose” value [4] was 5 and the “Number … at Week 8 following first dose” value [4] was 5. For the same molecule, the “Number … at Week 9 following first dose” value [4] was 5, the “Number … at Week 10 following first dose” value [4] was 5 and the “Number … at Week 11 following first dose” value [4] was 5/6 and 5. The “Number … at Week 12 following first dose” value [4] was 5 (n = 5), the “% TGI Day 70” value (2 mg/kg IV once on Day 0) was 89.74% and the “% of mice with tumor regression” value (2 mg/kg IV once on Day 0) was 20%. The “Tumor Volume (mm^3, Mean ± SEM) Day 70” value (2 mg/kg IV once on Day 0) was 139.85 mm^3 and 139.85 ± 99.80*** mm^3, the “Tumor Weight (g, Mean ± SEM) Day 84” value (2 mg/kg IV once on Day 0) was 0.089 ± 0.048 g and the “Tumor Weight (g, Mean ± SEM) Day 77” value (2 mg/kg IV once on Day 0, animal euthanized Day 77) was 1.004 g. For the same molecule, the “Number … at Week 4 following first dose” value [5] was 2, the “Number … at Week 5 following first dose” value [5] was 2 and the “Number … at Week 6 following first dose” value [5] was 2. For the same molecule, the “Number … at Week 7 following first dose” value [5] was 2, the “Number … at Week 8 following first dose” value [5] was 2 and the “Number … at Week 9 following first dose” value [5] was 2. For the same molecule, the “Number … at Week 10 following first dose” value [5] was 2, the “Number … at Week 11 following first dose” value [5] was 2/6 and 2 and the “Number … at Week 12 following first dose” value [5] was 1 (n = 5). The “% of mice with tumor regression” value (4 mg/kg IV as a single dose on Day 0) was 66% and the “% TGI Day 70” value (4 mg/kg IV once on Day 0) was 78.49%.
